Assay results taken from patent publication US9926369B2, “Methods for treating hepatocellular cancer by administering an anti-Ang-2 antibody” (Regeneron Pharmaceuticals, Inc., priority 2009, dated 2018).

Legend:
hAng-2FD-mFc K-432-N = molecular target: T1, hAng-2FD-mFc K-432-N (Homo sapiens, UniProt O15123, K432N); assay: Ang-2FD-mFc point mutant binding experiment (SPR), K-432-N; conditions: K-432-N mutant captured; antibody/peptibody at 100 nM; 25° C.
T1 construct: made in house
Source text: (§1) To further characterize binding between hAng2 and anti-hAng2 mAbs of the invention, seven variant hAng2-FD-mFc proteins were generated, each containing a single point mutation. Amino acids selected for mutation were based on the difference in sequence between hAng-2 and hAng-1 in the region that interacts with hTie-2 (FIG. 1). In particular, amino acids within the fibrinogen-like domain (FD) of Ang-2 which are believed to interact with Tie-2 based on crystal structure analysis, but which differ from the corresponding amino acid in Ang-1, were individually mutated to the corresponding hAng-1 residue. The results of this example indicate the amino acid residues of hAng-2 with which the Ang-2 preferential binding antibodies interact.
(§2) In this experiment, each of the seven hAng-2FD-mFc mutant proteins were captured (˜147-283 RU) on an anti-mouse-Fc surface created through direct chemical coupling to a BIACORE™ chip. Then each Ang-2 antibody (or peptibody, as the case may be) at 100 nM was injected over the captured mFc-tagged hAng-2FD protein surface at a flowrate of 50 μl/min for 180 sec, and the dissociation of variant hAng2-FD-mFc and antibody was monitored in real time for 20 min at 25° C.

[1] = tested on: Monkey Ang-2FD-hFc binding to hTie-2-mFc; assay: ELISA blocking of monkey Ang-2FD-hFc binding to hTie-2-mFc; format: biochemical; conditions: 16.67 nM antibody; 2 nM Ang-2FD-hFc
Experimental: Tie-2 is a natural receptor for Ang-2. Anti-Ang-2 antibodies were tested for their ability to block Ang-2 binding to human Tie-2 (hTie-2). hTie-2-mFc (a chimeric construct consisting of human Tie-2 conjugated to mouse IgG; SEQ ID NO:525) was coated onto 96-well plates at a concentration of 2 μg/ml and incubated overnight followed by washing four times in wash buffer (PBS with 0.05% Tween-20). The plate was then blocked with PBS (Irvine Scientific, Santa Ana, Calif.) containing 0.5% BSA (Sigma-Aldrich Corp., St. Louis, Mo.) for one hour at room temperature. In a separate plate, purified anti-Ang-2 antibodies, at a starting concentration of 50 nM, were serially diluted by a factor of three across the plate. Human, mouse or monkey Ang-2FD protein conjugated to human IgG (Ang-2FD-hFc) were added to final concentrations of 2 nM, 8 nM, or 2 nM respectively and incubated for one hour at room temperature. The antibody/Ang-2FD-Fc mixture was then added to the plate containing hTie-2-mFc and incubated for one hour at room temperature. Detection of Ang-2FD-hFc bound to hTie-2-mFc protein was determined with Horse-Radish Peroxidase (HRP) conjugated to a-human IgG antibody (Jackson Immuno Research Lab, West Grove, Pa.) and developed by standard colorimetric response using tetramethylbenzidine (TMB) substrate (BD Biosciences, San Jose, Calif.). Absorbance was read at OD450 for 0.1 sec.

hAng-2FD-mFc S-480-P = molecular target: T2, hAng-2FD-mFc S-480-P (Homo sapiens, UniProt O15123, S480P); assay: Ang-2FD-mFc point mutant binding experiment (SPR), S-480-P; conditions: S-480-P mutant captured; antibody/peptibody at 100 nM; 25° C.
T2 construct: made in house
Source text: as §1, §2

Monomeric hAng-2FD = molecular target: T3, Monomeric hAng-2FD (Homo sapiens, UniProt O15123); assay: SPR binding to monomeric hAng-2FD (Table 8)
T3 sequence (O15123 282-496 limits assumed): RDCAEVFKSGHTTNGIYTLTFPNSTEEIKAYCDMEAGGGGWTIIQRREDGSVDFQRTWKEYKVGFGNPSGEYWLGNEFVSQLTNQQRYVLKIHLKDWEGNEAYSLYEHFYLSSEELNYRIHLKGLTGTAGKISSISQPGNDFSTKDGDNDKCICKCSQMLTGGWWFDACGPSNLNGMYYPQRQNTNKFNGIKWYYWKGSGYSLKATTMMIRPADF
Experimental: Equilibrium dissociation constants (KD values) for the binding of selected purified Ang-2 antibodies to dimeric fibrinogen-like domain of human (SEQ ID NO: 519), mouse (Mus musculus; SEQ ID NO: 520) and monkey (Macca fascicularis; SEQ ID NO: 521) Ang-2 (Ang-2FD) conjugated to human IgG1 (SEQ ID NO:528) were determined by surface kinetics using a real-time biosensor surface plasmon resonance assay. Antibody was captured on a goat anti-mouse IgG polyclonal antibody surface, a goat anti-human κ polyclonal antibody (Southern Biotech, Birmingham, Ala.) surface or a goat anti-human IgG polyclonal antibody (Jackson Immuno Research Lab, West Grove, Pa.) surface created through direct amine coupling to a BIACORE™ CM5 sensor chip to form a captured antibody surface. Varying concentrations (ranging from 50 nM to 6.25 nM) of protein were injected at 100 μl/min over captured antibody surface for 90 seconds. Antigen-antibody binding and dissociation were monitored in real time at room temperature. Kinetic analysis was performed to calculate KD and half-life of antigen/antibody complex dissociation.
In yet another experiment, KD values for selected purified antibodies that bind to wild-type human Ang-2 (hAng-2-WT; SEQ ID NO: 518) and the fibrinogen-like domain of human Ang2 (hAng-2FD) were determined (as described above).

T2 sequence (O15123 with tags, fused parts or gaps S480P): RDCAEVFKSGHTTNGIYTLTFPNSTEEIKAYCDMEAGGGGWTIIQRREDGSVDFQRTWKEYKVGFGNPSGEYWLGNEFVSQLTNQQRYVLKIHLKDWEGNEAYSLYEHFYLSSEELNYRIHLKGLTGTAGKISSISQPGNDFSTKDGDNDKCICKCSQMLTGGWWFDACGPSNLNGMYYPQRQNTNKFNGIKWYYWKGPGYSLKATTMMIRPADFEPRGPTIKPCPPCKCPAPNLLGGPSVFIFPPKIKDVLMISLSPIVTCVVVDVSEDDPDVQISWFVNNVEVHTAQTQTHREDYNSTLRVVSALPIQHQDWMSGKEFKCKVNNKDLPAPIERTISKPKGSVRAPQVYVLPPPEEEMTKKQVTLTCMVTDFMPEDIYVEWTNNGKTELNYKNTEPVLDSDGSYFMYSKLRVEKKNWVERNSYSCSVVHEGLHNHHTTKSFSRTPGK
T1 sequence (O15123 with tags, fused parts or gaps K432N): as the sequence (O15123 with tags, fused parts or gaps S480P) above, with K151N, P199S counted along it
Sequence of Monkey Ang-2FD-hFc binding to hTie-2-mFc (as listed by the source): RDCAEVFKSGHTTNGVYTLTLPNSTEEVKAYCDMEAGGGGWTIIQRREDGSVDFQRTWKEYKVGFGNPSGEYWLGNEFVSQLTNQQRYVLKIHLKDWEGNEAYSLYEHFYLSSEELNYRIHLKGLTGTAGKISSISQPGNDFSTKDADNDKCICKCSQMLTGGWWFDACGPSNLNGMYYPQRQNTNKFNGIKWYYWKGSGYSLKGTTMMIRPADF
Sequence of Monkey Ang-2FD-hFc binding to hTie-2-mFc (Q02763 with tags, fused parts or gaps Q346P/T695I partner limits assumed): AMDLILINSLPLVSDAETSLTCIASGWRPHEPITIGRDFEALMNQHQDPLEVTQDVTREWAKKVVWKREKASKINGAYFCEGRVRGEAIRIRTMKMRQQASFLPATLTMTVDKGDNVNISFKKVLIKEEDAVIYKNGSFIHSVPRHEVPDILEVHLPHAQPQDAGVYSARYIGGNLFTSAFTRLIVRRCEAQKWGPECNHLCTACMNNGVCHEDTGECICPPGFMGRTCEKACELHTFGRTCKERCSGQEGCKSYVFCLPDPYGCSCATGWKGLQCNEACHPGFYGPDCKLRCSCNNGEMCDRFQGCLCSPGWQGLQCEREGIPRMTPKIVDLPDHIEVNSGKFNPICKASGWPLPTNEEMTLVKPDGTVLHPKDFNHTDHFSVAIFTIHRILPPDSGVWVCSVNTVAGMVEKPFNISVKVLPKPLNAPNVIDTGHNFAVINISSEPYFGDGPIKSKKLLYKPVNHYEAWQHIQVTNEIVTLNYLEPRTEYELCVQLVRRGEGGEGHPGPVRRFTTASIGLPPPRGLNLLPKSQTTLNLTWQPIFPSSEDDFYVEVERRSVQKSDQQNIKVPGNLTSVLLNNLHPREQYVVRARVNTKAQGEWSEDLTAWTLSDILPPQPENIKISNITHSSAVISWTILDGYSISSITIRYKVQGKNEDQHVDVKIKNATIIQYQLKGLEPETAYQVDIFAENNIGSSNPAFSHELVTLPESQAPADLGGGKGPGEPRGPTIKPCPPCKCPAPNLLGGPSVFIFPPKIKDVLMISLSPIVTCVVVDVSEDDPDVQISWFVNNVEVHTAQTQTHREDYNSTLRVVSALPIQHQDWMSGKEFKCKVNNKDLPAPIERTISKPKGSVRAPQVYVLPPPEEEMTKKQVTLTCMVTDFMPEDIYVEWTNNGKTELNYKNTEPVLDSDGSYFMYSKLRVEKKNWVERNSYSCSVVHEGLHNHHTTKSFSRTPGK

Substance: H1H685P: human anti-Ang-2 antibody, HCVR/LCVR SEQ ID NOs 18/20; also referred to as mAb1 [Antibody H1H685P]
- Kd (hAng-2FD-mFc K-432-N): 14 pM
- RU (hAng-2FD-mFc K-432-N): 152.68 RU
- Percent Blocking of Ang-2FD Binding to Tie-2, Monkey Ang-2FD-hFc [1]: 62.2%
- Kd (hAng-2FD-mFc S-480-P): 205 pM
- RU (hAng-2FD-mFc S-480-P): 161.13 RU
- Kd (Monomeric hAng-2FD): 578 pM
